Reference: CN116143922A (BEIJING DONGFANG BIOTECH CO LTD, dated 2023)

Legend:
LILRA6 [1] = biological target: T1, LILRA6 (UniProt Q6PI73 24-447, limits assumed); experiment: ELISA, coated LILR family protein 100 ng/well, single antibody concentration
LILRA1 [2] = biological target: T2, LILRA1 (UniProt O75019 17-461, limits assumed); experiment: as above
LILRA3 [3] = biological target: T3, LILRA3 (UniProt Q8N6C8 24-439); experiment: as above
LILRB3 [4] = biological target: T4, LILRB3 (UniProt O75022 24-443, limits assumed); experiment: as above
LILRA2 [5] = biological target: T5, LILRA2 (UniProt Q8N149 24-449, limits assumed); experiment: as above
LILRB2 [6] = biological target: T6, LILRB2 (UniProt Q8N423 22-460, limits assumed); experiment: as above
LILRB5 [7] = biological target: T7, LILRB5 (UniProt O75023 24-458, limits assumed); experiment: as above
LILRA5 [8] = biological target: T8, LILRA5 (UniProt A6NI73 42-268, limits assumed); experiment: as above
LILRB1 [9] = biological target: T9, LILRB1 (UniProt Q8NHL6 24-461, limits assumed); experiment: as above
LILRA4 [10] = biological target: T10, LILRA4 (UniProt P59901 24-446, limits assumed); experiment: as above
LILRB4抗原 (人LILRB4蛋白胞外段) [11] = biological target: T11, LILRB4抗原 (人LILRB4蛋白胞外段) (human, UniProt Q8NHJ6 22-259); experiment: ELISA, coated LILRB4 100 ng/well, goat anti-mouse IgG-HRP detection
T11 construct: extracellular domain

LILRA6 [12] = biological target: T1, LILRA6; experiment: ELISA, coated LILR family protein, antibody at 50 μg/mL
LILRA1 [13] = biological target: T2, LILRA1; experiment: as above
LILRA3 [14] = biological target: T3, LILRA3; experiment: as above
LILRB3 [15] = biological target: T4, LILRB3; experiment: as above
LILRA2 [16] = biological target: T5, LILRA2; experiment: as above
LILRB2 [17] = biological target: T6, LILRB2; experiment: as above
LILRB5 [18] = biological target: T7, LILRB5; experiment: as above
LILRA5 [19] = biological target: T8, LILRA5; experiment: as above
LILRB1 [20] = biological target: T9, LILRB1; experiment: as above
LILRA4 [21] = biological target: T10, LILRA4; experiment: as above
LILRB4抗原 (人LILRB4蛋白胞外段) [22] = biological target: T11, LILRB4抗原 (人LILRB4蛋白胞外段); experiment: as above
THP-1细胞表面的LILRB4 [23] = biological target: T12, THP-1细胞表面的LILRB4 (human, UniProt Q8NHJ6 22-448); experiment: cell-based or functional assay
THP-1细胞表面的LILRB4 [24] = biological target: T12, THP-1细胞表面的LILRB4; experiment: flow cytometry competition on THP-1 cells; MD-Ⅰ titrated, competitor FITC-labelled ApoE at 0.4 μg/mL
THP-1细胞表面的LILRB4 [25] = biological target: T12, THP-1细胞表面的LILRB4; experiment: flow cytometry on THP-1 cells, FITC goat anti-mouse IgG detection

T5 sequence (Q8N149 24-449 limits assumed): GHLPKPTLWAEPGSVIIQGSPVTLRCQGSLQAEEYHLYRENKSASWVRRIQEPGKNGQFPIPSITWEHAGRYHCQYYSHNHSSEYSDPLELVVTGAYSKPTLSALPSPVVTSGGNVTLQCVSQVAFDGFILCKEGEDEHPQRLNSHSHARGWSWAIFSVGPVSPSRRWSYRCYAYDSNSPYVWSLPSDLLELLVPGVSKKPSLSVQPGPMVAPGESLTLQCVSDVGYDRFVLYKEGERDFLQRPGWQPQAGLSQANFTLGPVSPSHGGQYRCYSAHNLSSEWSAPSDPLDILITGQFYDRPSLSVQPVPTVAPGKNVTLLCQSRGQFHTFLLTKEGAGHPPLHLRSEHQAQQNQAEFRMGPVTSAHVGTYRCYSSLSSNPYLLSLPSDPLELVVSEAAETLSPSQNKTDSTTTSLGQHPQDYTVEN
T10 sequence (P59901 24-446 limits assumed): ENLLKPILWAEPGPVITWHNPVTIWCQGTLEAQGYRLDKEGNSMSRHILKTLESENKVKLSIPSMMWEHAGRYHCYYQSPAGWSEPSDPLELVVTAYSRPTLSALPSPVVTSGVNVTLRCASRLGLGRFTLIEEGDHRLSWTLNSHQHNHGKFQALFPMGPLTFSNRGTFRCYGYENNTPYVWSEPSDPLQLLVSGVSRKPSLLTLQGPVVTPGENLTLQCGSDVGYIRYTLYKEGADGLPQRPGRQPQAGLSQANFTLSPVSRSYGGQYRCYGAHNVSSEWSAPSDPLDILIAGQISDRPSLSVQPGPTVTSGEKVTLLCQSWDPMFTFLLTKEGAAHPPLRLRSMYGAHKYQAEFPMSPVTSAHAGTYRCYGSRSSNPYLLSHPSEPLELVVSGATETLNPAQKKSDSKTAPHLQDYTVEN
T3 sequence (Q8N6C8 24-439 limits assumed): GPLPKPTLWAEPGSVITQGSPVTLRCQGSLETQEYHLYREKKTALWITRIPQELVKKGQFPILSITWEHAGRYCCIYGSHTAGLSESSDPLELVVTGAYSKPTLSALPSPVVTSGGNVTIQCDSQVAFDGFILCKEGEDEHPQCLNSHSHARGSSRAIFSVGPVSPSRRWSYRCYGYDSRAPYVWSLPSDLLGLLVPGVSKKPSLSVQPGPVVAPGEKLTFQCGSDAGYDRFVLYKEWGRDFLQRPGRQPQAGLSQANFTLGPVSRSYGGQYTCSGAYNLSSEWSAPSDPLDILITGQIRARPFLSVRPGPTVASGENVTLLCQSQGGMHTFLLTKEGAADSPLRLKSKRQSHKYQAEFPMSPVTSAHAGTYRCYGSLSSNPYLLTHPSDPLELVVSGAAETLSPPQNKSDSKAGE
T6 sequence (Q8N423 22-460 limits assumed): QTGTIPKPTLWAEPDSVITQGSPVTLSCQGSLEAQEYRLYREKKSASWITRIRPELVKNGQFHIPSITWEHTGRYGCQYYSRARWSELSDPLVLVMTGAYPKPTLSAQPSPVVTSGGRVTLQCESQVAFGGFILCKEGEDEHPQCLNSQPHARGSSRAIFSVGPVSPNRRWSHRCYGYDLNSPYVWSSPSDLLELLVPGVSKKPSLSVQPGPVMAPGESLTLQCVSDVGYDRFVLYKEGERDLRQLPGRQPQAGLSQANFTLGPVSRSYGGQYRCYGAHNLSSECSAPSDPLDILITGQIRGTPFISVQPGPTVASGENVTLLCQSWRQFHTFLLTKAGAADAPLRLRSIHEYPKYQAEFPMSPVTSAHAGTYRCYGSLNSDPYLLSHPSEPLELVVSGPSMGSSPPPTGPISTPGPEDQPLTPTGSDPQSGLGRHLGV
T4 sequence (O75022 24-443 limits assumed): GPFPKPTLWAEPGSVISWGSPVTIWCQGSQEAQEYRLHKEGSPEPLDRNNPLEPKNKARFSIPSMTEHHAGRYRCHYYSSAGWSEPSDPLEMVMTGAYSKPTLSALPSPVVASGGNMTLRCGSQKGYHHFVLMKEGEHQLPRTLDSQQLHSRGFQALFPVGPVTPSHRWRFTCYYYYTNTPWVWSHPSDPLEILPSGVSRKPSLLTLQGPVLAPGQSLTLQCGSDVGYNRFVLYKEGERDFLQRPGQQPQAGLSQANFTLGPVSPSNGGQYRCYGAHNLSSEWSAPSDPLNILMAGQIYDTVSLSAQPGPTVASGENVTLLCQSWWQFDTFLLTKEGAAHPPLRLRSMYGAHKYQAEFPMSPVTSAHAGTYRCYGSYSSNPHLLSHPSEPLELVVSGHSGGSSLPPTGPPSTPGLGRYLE
T2 sequence (O75019 17-461 limits assumed): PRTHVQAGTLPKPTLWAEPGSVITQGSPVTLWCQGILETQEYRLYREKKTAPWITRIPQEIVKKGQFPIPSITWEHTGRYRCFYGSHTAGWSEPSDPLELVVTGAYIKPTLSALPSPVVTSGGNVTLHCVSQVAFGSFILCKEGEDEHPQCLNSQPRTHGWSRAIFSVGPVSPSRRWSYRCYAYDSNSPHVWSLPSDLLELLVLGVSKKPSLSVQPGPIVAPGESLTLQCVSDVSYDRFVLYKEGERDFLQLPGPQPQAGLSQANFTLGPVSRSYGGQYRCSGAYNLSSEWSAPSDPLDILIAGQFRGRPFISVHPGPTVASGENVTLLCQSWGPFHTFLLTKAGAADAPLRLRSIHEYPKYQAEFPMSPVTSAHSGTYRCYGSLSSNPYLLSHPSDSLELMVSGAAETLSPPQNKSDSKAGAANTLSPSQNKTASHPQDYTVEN
T9 sequence (Q8NHL6 24-461 limits assumed): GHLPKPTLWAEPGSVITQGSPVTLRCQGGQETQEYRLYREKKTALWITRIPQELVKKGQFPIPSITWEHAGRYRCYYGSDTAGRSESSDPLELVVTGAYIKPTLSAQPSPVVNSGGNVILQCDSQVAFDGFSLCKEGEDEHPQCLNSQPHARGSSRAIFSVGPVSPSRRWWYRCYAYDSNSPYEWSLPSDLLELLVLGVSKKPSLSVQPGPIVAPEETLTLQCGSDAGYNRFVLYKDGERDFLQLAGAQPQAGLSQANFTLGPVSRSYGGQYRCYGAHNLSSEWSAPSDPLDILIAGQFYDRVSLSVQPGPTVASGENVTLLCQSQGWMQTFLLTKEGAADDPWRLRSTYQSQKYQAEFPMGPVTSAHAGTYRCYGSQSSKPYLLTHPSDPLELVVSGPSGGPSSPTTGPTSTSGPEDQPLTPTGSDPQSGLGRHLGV
T7 sequence (O75023 24-458 limits assumed): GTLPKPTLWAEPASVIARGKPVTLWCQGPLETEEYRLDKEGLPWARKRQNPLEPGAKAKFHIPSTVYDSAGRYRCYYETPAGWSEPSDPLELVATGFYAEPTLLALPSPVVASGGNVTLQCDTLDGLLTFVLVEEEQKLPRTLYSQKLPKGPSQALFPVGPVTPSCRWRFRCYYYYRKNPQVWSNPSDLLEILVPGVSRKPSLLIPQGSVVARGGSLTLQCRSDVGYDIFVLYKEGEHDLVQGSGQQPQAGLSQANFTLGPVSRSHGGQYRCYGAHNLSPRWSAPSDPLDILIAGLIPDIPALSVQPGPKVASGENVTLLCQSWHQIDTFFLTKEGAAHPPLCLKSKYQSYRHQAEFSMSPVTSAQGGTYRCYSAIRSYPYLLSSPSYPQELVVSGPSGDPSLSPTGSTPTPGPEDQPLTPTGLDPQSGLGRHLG
T8 sequence (A6NI73 42-268 limits assumed): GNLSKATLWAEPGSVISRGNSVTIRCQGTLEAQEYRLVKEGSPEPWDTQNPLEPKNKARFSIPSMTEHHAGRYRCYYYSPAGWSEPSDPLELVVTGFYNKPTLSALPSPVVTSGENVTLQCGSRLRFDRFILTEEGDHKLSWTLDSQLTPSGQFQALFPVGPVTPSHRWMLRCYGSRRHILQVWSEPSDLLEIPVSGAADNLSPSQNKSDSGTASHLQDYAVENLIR
T1 sequence (Q6PI73 24-447 limits assumed): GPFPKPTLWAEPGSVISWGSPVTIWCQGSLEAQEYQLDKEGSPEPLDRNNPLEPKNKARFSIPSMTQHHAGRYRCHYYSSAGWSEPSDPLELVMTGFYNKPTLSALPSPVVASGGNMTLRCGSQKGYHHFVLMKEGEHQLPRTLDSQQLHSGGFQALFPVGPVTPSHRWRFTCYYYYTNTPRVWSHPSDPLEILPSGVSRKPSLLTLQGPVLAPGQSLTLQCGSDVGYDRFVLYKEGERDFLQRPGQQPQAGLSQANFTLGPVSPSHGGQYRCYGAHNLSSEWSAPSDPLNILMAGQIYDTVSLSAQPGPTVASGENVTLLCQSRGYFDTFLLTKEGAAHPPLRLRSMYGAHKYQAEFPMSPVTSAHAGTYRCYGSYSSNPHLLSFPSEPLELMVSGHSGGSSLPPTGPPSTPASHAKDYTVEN

- binding result (LILRA6 [1]): no binding (tested: 50μg/mL)
- binding result (LILRA1 [2]): no binding (tested: 50μg/mL)
- binding result (LILRA3 [3]): no binding (tested: 50μg/mL)
- binding result (LILRB3 [4]): no binding (tested: 50μg/mL)
- binding result (LILRA2 [5]): no binding (tested: 50μg/mL)
- binding result (LILRB2 [6]): no binding (tested: 50μg/mL)
- binding result (LILRB5 [7]): no binding (tested: 50μg/mL)
- binding result (LILRA5 [8]): no binding (tested: 50μg/mL)
- binding result (LILRB1 [9]): no binding (tested: 50μg/mL)
- binding result (LILRA4 [10]): no binding (tested: 50μg/mL)
- EC50 (LILRB4抗原 (人LILRB4蛋白胞外段) [11]): 0.221 µg/mL
- OD 450nm/630nm (LILRA6 [12]): 0.045
- OD 450nm/630nm (LILRA1 [13]): 0.075
- OD 450nm/630nm (LILRA3 [14]): 0.028
- OD 450nm/630nm (LILRB3 [15]): 0.015
- OD 450nm/630nm (LILRA2 [16]): 0.054
- OD 450nm/630nm (LILRB2 [17]): 0.014
- OD 450nm/630nm (LILRB5 [18]): 0.056
- OD 450nm/630nm (LILRA5 [19]): 0.078
- OD 450nm/630nm (LILRB1 [20]): 0.047
- OD 450nm/630nm (LILRA4 [21]): 0.156
- OD 450nm/630nm (LILRB4抗原 (人LILRB4蛋白胞外段) [22]): 2.42
- IC50 of inhibition of ARG1 secretion by THP-1 cells in the presence of ApoE (精氨酸酶活性检测) (THP-1细胞表面的LILRB4 [23]): 310 µg/mL
- IC50 (THP-1细胞表面的LILRB4 [24]): 8.62 µg/mL
- EC50 (THP-1细胞表面的LILRB4 [25]): 5.09 µg/mL
B1: 抗LILRB4单克隆抗体MD-Ⅰ (mouse IgG1 heavy chain constant region, mouse Ck light chain constant region) (antibody, V domains shown)
VH: EVQLQESGPQLVRPGTSVKLSCKASGYTFTNYWIHWVKQRPGQGLEWIGEINPTNGHTNYNEKFKSKATLTVDKSSSTAYMQLSSLTSEDSAVYYCARYTYDQDAMDYWGQGTSVTVSS
VL: DIVITQSTSSLSASLGDRVTISCRASQDISNYLNWYQQKPDGTVKLLIYYTSRLHSGVPSRFSGSGSGTDYSLTISNLEQEDIATYFCQQGNTLPPTFGGGTKLEIKA
notes: also called MD-I
